Laboratory results reported in patent US20240076389A1 (NATIONAL RESEARCH COUNCIL OF CANADA, published 2024).

T1: human AXL expressed on the cell surface of tumor cell lines (human, UniProt P30530 26-894)
T1 construct: whole, on cells; also called cell surface-expressed AXL; cell-based AXL
T1 sequence (looked up): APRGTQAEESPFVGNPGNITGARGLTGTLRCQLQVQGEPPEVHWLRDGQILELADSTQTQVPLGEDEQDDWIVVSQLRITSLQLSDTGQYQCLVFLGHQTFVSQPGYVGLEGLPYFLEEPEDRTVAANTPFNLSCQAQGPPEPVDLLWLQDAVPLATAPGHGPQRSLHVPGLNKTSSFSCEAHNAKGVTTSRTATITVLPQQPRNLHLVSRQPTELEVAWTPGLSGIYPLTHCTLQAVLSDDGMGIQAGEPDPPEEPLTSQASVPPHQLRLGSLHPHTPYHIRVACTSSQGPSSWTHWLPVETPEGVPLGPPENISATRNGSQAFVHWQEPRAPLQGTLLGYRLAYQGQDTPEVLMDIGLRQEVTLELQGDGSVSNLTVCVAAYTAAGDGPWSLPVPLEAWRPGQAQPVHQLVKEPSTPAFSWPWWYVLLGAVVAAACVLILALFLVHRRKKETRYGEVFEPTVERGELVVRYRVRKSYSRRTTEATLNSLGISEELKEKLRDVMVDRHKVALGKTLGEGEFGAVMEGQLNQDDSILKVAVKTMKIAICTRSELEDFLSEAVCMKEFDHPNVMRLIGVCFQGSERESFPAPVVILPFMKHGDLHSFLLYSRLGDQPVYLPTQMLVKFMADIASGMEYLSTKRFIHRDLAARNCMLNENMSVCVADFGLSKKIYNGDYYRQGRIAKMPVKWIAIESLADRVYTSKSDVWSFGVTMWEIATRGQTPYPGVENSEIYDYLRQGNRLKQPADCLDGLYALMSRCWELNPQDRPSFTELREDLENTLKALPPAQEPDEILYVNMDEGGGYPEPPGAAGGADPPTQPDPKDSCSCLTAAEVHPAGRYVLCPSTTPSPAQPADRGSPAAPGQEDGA

T2: recombinant human AXL extracellular domain, C-terminally His8-tagged (rhAXL-ECD) (human, UniProt P30530 26-451)
T2 construct: Made in CHO cells; also called (rh)AXL-ECD His8; human AXL ECD
T2 sequence: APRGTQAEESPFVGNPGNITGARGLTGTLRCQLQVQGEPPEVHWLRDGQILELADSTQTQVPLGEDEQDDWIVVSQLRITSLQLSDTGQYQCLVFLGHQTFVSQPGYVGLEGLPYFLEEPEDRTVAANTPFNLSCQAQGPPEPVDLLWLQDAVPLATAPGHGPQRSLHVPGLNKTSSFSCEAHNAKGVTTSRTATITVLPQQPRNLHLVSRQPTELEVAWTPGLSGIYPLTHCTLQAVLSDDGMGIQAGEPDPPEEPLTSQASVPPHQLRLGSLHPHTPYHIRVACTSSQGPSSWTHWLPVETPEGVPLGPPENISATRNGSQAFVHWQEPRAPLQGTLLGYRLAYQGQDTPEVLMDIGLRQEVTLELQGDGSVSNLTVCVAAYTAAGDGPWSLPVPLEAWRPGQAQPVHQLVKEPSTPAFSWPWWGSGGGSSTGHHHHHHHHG


Key:
[1] = target: T1, human AXL expressed on the cell surface …; test: FACS on NCI-H292 cells, apparent Kd, human Fc format
Method: (§1) FACS binding assay. Adherent cells were dissociated with non-enzymatic Sigma Cell Dissociation Solution (Cat. No. C5789). Cells suspensions were added to polypropylene, V-bottom 96-well plates and incubated for 2 hours on ice with primary antibodies at concentrations ranging from 100 nM to 0.001 nM or at a single dose of 100 nM (for the non-specific control). After incubation and washes, cells were incubated with fluorescently labeled secondary antibody (Alexa Fluor® 488 anti-human IgG from Jackson Cat. No 709-546-098) for 1 hour on ice, then washed. Cell viability was determined using Fixable viability dye 450 (20 min on ice). Stained cells were fixed in 1% formaldehyde at 4° C. and stored at 4° C. until acquisition which was performed the next day.
(§2) Binding of recombinant chimeric Abs to three cell lines was assessed by FACS as described above. The apparent Bmax and Kd determination is shown below in Table 14.

[2] = target: T1, human AXL expressed on the cell surface …; test: FACS on SKOV3 cells, apparent Kd
Method: as §1, §2

[3] = target: T1, human AXL expressed on the cell surface …; test: FACS on NCI-H292 cells, apparent Kd
Method: as §1, §2

[4] = target: T2, recombinant human AXL extracellular …; test: SPR Biacore T200, mAb captured on anti-Fc, AXL ECD flowed, single-cycle kinetics
Method: (§3) Surface plasmon resonance. For murine mAbs, binding to human and cynomolgus AXL ECD was assessed using a Biacore T200 instrument. Briefly, either anti-mouse or anti-human Fc antibody was immobilized on a research-grade CM5 series S sensor chip using amine coupling in acetate buffer. Murine or recombinant chimeric murine-human mAbs (mouse VH/VL; human constant regions) were captured, then recombinant human or cyno AXL ECD was flowed over the surface at different concentration ranges (0.1-500 nM) depending on the antibody. The running buffer was PBS/Tween-20 and the flow rate 100 uL/min. All binding studies were performed at 25° C. Surfaces were regenerated using 10 mM glycine, pH 1.5.

[5] = target: T3, recombinant cynomolgus AXL extracellular domain (cynomolgus); test: as above
T3 construct: range 1-449; also called Cyno AXL; cyno AXL ECD
Method: as §3

Kd [1]	Kd [2]	Kd [3]	Kd [4]	kon [4]	Kd [5]	koff [5]	kon [5]	Binder
105 pM								NRC-sdAb001-Fc (VHH-human IgG1 Fc fusion) (Fc fusion, VHH fused N-terminally to human IgG1 Fc, made in HEK293 cells; also called NRC-sdAb0001-Fc; NRC-sdAb001-hIgG1; not shown: human IgG1 Fc) QVKLEESGGGLVQAGGSLRLSCTASASISSFDIMGWYRQAPGKQRELVAAITTLDIANYRDSVKGRFTISRDNAKNTVYLQMDSLKPEDTARYHCAAFQSDQNYWGQGTQVTVSS
	60.8 pM	70.8 pM	500 pM	1.1e+06 M⁻¹ s⁻¹	500 pM	0.00043 s⁻¹	820000 M⁻¹ s⁻¹	hFC-F107-10G1 (antibody, human IgG1, kappa, V domains shown, Chimeric mAb, human IgG1 / human kappa constant regions; also called mAb F107-10G1) VH: EVNLVESGGGVVKPGASLKLSCEASGFTFSNYGMSWVRQTSDKRLEWVASISGGGGRTYYLDNVKGRFIISRENAKNTLYLQMSSLKSEDTALFYCARGARASYFAMDYWGQGSSVTVSS VL: VIVMTQSHKFMSTSVGDRVSITCKASQDVTTAVAWYQQKPGQSPKLLIYWASTRHTGVPDRFTGSGSGTDYSLTISNVQTEDLAFYYCQQHFTTPLTFGAGTKLELKR
